Reference: article PMC2884976 (The Journal of General Virology, 2007)

B1: GST–M1 middle domain fusion protein (domain or fragment)
chain: GDPNNMDKAVKLYRKLKREITFHGAKEISLSYSAGALASCMGLIYNRMGAVTTEVAFGLVCATCEQIADSQHRSHRQM
notes: not shown: GST, N-terminal, kept
B2: GST–M1 N+M domain fusion protein (domain or fragment)
chain: MSLLTEVETYVLSIIPSGPLKAEIAQRLEDVFAGKNTDLEVLMEWLKTRPILSPLTKGILGFVFTLTVPSERGLQRRRFVQNALNGNGDPNNMDKAVKLYRKLKREITFHGAKEISLSYSAGALASCMGLIYNRMGAVTTEVAFGLVCATCEQIADSQHRSHRQM
notes: as for B1
B3: GST–M1 M+C domain fusion protein (domain or fragment)
chain: GDPNNMDKAVKLYRKLKREITFHGAKEISLSYSAGALASCMGLIYNRMGAVTTEVAFGLVCATCEQIADSQHRSHRQMVTTTNPLIRHENRMVLASTTAKAMEQMAGSSEQAAEAMEVASQARQMVQAMRTIGTHPSSSAGLKNDLLENLQAYQKRMGVQMQRFK
notes: as for B1
B4: untagged WT radiolabelled M1, in vitro translated (natural protein)
chain: MSLLTEVETYVLSIIPSGPLKAEIAQRLEDVFAGKNTDLEVLMEWLKTRPILSPLTKGILGFVFTLTVPSERGLQRRRFVQNALNGNGDPNNMDKAVKLYRKLKREITFHGAKEISLSYSAGALASCMGLIYNRMGAVTTEVAFGLVCATCEQIADSQHRSHRQMVTTTNPLIRHENRMVLASTTAKAMEQMAGSSEQAAEAMEVASQARQMVQAMRTIGTHPSSSAGLKNDLLENLQAYQKRMGVQMQRFK

What was measured:
Test in all cases: pull-down
[1] = biological target: purified NP (influenza A virus A/PR/8/34 (PR8), UniProt P03466 1-498); settings: both partners purified
[2] = biological target: T1, GST–M1 C-terminal domain fusion protein (influenza A virus A/PR/8/34 (PR8), UniProt P03485 165-252); settings: one partner purified
T1 construct: Cloned into pGEX-3X; not shown: GST, N-terminal, kept

[3] = biological target: B1; settings: one partner purified
[4] = biological target: B3; settings: one partner purified

Chain of purified NP (P03466 whole entry, the tested form may be a part): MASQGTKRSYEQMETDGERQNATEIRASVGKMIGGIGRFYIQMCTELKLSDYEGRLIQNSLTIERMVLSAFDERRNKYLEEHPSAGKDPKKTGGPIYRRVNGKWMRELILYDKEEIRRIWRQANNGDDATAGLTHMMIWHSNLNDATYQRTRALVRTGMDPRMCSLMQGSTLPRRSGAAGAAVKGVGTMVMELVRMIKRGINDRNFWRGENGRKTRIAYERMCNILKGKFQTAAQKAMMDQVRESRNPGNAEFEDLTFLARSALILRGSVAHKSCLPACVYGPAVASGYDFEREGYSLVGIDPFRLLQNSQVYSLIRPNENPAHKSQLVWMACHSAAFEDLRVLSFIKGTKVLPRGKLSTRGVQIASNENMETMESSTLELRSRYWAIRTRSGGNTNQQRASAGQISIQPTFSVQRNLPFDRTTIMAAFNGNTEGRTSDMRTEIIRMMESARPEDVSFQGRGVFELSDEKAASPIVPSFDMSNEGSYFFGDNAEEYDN

Row | Binder | binding result [1] | binding activity relative to full-length GST–M1 [2] | binding activity relative to full-length GST–M1 [3] | binding activity relative to full-length GST–M1 [4]
1 | B1 | binds | – | – | –
2 | B2 | binds | – | – | –
3 | B3 | binds | – | – | –
4 | B4 | – | ~40% | 2 fold | 2 fold
